Experimental findings from PMC7221075 are described below.

For test [1], the target named is TMH-iLID membrane anchor (transmembrane helix of E. coli TatA, Val-Leu, Flag peptide, iLID) (Escherichia coli).
For test [2], the target named is TMH-LOV2 V416L membrane anchor (Escherichia coli | Avena sativa).
Test [3] has the same target. This is another data set of the same source.

Consider SspB_Nano-SctQ bait fusion protein, for which the light/dark secretion ratio (L/D ratio) of native T3SS substrates, in vitro secretion assay, LITESEC-supp2 (anchor from pACYC184) in test [1] turned out to be 0.26.
Regarding Zdk1-SctQ bait fusion protein, in test [2], the secretion efficiency of heterologous cargo expressed from plasmid (YopE1-53-NanoLuc-FLAG), LITESEC-act3, in light was found to be 50%. In test [3], the light/dark secretion ratio (L/D ratio) of native T3SS substrates, in vitro secretion assay, LITESEC-act2 (anchor from pBAD) came to 2.16 and the light/dark secretion ratio (L/D ratio) of native T3SS substrates, in vitro secretion assay, LITESEC-act3 (anchor from pACYC184) turned out to be 4.18.
